Results from the supplement of paper PMC10567573.

B1: SEC22B (parent)
chain: AKQLFRKLNEQSPTRCTLEAGAMT
B2: C1orf137 (parent)
chain: RQHHHQSSFPGSLPQETNLTLKVC

Variants of: B1
Test: protein stability index of a GFP-peptide fusion (GPS, HEK-293T) (PSI 1-6); higher = more stable
Conditions: c terminus: a fixed tail appended
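Further: lentivirally expressed fusions sorted by FACS into six bins by GFP to DsRed ratio, PSI derived from sequencing read proportions per bin multiplied by bin number.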

Variant	protein stability index
YKQLFRKLNEQSPTRCTLEAGAMT	1.89
IKQLFRKLNEQSPTRCTLEAGAMT	1.5
LKQLFRKLNEQSPTRCTLEAGAMT	2.07
FKQLFRKLNEQSPTRCTLEAGAMT	2.18
RKQLFRKLNEQSPTRCTLEAGAMT	2.23
NKQLFRKLNEQSPTRCTLEAGAMT	2.22
CKQLFRKLNEQSPTRCTLEAGAMT	2.09
HKQLFRKLNEQSPTRCTLEAGAMT	2.23
KKQLFRKLNEQSPTRCTLEAGAMT	2.77
DKQLFRKLNEQSPTRCTLEAGAMT	2.98
PKQLFRKLNEQSPTRCTLEAGAMT	2.52
QKQLFRKLNEQSPTRCTLEAGAMT	2.44
SKQLFRKLNEQSPTRCTLEAGAMT	2.46
TKQLFRKLNEQSPTRCTLEAGAMT	2.3
VKQLFRKLNEQSPTRCTLEAGAMT	2.16
EKQLFRKLNEQSPTRCTLEAGAMT	3.12
MKQLFRKLNEQSPTRCTLEAGAMT	1.6
GKQLFRKLNEQSPTRCTLEAGAMT	2.26
AKQLFGKLNEQSPTRCTLEAGAMT	2.36
AKQLFAKLNEQSPTRCTLEAGAMT	2.14
AKQLFDKLNEQSPTRCTLEAGAMT	2.67
AKQLFIKLNEQSPTRCTLEAGAMT	1.67
AKQLFHKLNEQSPTRCTLEAGAMT	2.46
AKQLFCKLNEQSPTRCTLEAGAMT	2.42
AKQLFFKLNEQSPTRCTLEAGAMT	1.49
AKQLFEKLNEQSPTRCTLEAGAMT	2.46

Variant	protein stability index
AKQVFRKLNEQSPTRCTLEAGAMT	2.07
AKQSFRKLNEQSPTRCTLEAGAMT	3.44
AKQIFRKLNEQSPTRCTLEAGAMT	1.99
AKQCFRKLNEQSPTRCTLEAGAMT	2.77
AKQRFRKLNEQSPTRCTLEAGAMT	2.96
AKQDFRKLNEQSPTRCTLEAGAMT	3.27
AKQMFRKLNEQSPTRCTLEAGAMT	2.4
AKQEFRKLNEQSPTRCTLEAGAMT	3.62
AKQNFRKLNEQSPTRCTLEAGAMT	2.75
AKQGFRKLNEQSPTRCTLEAGAMT	2.94
AKQQFRKLNEQSPTRCTLEAGAMT	2.68
AKQHFRKLNEQSPTRCTLEAGAMT	3.12
AKQPFRKLNEQSPTRCTLEAGAMT	3.07
AKQWFRKLNEQSPTRCTLEAGAMT	2.02
AKQKFRKLNEQSPTRCTLEAGAMT	2.89
AKQYFRKLNEQSPTRCTLEAGAMT	2.32
AKQTFRKLNEQSPTRCTLEAGAMT	3.27
AKQFFRKLNEQSPTRCTLEAGAMT	1.89
AKQAFRKLNEQSPTRCTLEAGAMT	2.73
AKQLSRKLNEQSPTRCTLEAGAMT	3.44
AKQLERKLNEQSPTRCTLEAGAMT	2.97
AKQLQRKLNEQSPTRCTLEAGAMT	3.23
AKQLRRKLNEQSPTRCTLEAGAMT	3.22
AKQLWRKLNEQSPTRCTLEAGAMT	1.94
AKQLHRKLNEQSPTRCTLEAGAMT	2.89
AKQLARKLNEQSPTRCTLEAGAMT	3.67

Variant	protein stability index
AKQLTRKLNEQSPTRCTLEAGAMT	2.75
AKQLYRKLNEQSPTRCTLEAGAMT	2.28
AKQLLRKLNEQSPTRCTLEAGAMT	2.48
AKQLVRKLNEQSPTRCTLEAGAMT	2.95
AKQLPRKLNEQSPTRCTLEAGAMT	3.46
AKQLGRKLNEQSPTRCTLEAGAMT	3.62
AKQLKRKLNEQSPTRCTLEAGAMT	3.47
AKQLIRKLNEQSPTRCTLEAGAMT	2.3
AKQLNRKLNEQSPTRCTLEAGAMT	3.07
AKQLDRKLNEQSPTRCTLEAGAMT	3.37
AKQLCRKLNEQSPTRCTLEAGAMT	2.55
AKQLMRKLNEQSPTRCTLEAGAMT	2.62
AKGLFRKLNEQSPTRCTLEAGAMT	2.39
AKELFRKLNEQSPTRCTLEAGAMT	2.51
AKHLFRKLNEQSPTRCTLEAGAMT	1.93
AKILFRKLNEQSPTRCTLEAGAMT	1.77
AKTLFRKLNEQSPTRCTLEAGAMT	2.59
AKLLFRKLNEQSPTRCTLEAGAMT	2.08
AKFLFRKLNEQSPTRCTLEAGAMT	2.18
AKRLFRKLNEQSPTRCTLEAGAMT	1.93
AKALFRKLNEQSPTRCTLEAGAMT	2.2
AKNLFRKLNEQSPTRCTLEAGAMT	3.08
AKYLFRKLNEQSPTRCTLEAGAMT	1.55
AKCLFRKLNEQSPTRCTLEAGAMT	2.39
AKKLFRKLNEQSPTRCTLEAGAMT	2.02
AKSLFRKLNEQSPTRCTLEAGAMT	1.88

Variant	protein stability index
AKWLFRKLNEQSPTRCTLEAGAMT	2.53
AKPLFRKLNEQSPTRCTLEAGAMT	2.5
AKMLFRKLNEQSPTRCTLEAGAMT	1.94
AKDLFRKLNEQSPTRCTLEAGAMT	2.3
AKVLFRKLNEQSPTRCTLEAGAMT	2.11
ASQLFRKLNEQSPTRCTLEAGAMT	2.4
AWQLFRKLNEQSPTRCTLEAGAMT	2.92
AEQLFRKLNEQSPTRCTLEAGAMT	2.92
AVQLFRKLNEQSPTRCTLEAGAMT	1.54
ATQLFRKLNEQSPTRCTLEAGAMT	1.83
AFQLFRKLNEQSPTRCTLEAGAMT	1.72
AHQLFRKLNEQSPTRCTLEAGAMT	1.94
AQQLFRKLNEQSPTRCTLEAGAMT	2
ACQLFRKLNEQSPTRCTLEAGAMT	1.7
ANQLFRKLNEQSPTRCTLEAGAMT	2.72
APQLFRKLNEQSPTRCTLEAGAMT	2.57
AYQLFRKLNEQSPTRCTLEAGAMT	2.24
AGQLFRKLNEQSPTRCTLEAGAMT	2.77
AIQLFRKLNEQSPTRCTLEAGAMT	1.43
ARQLFRKLNEQSPTRCTLEAGAMT	2.76
ADQLFRKLNEQSPTRCTLEAGAMT	2.42
AMQLFRKLNEQSPTRCTLEAGAMT	1.8
AAQLFRKLNEQSPTRCTLEAGAMT	2.13
ALQLFRKLNEQSPTRCTLEAGAMT	2.1

Variants of: B2
Test: as above
Conditions: c terminus: a fixed tail appended

Variant	protein stability index
RQHHHQSSFPGSLPQDTNLTLKVC	3.63
RQHHHQSSFPGSLPQNTNLTLKVC	2.8
RQHHHQSSFPGSLPQYTNLTLKVC	1.72
RQHHHQSSFPGSLTQETNLTLKVC	2.71
RQHHHQSSFPGSLSQETNLTLKVC	2.72
RQHHWQSSFPGSLPQETNLTLKVC	2.27
RQHHGQSSFPGSLPQETNLTLKVC	2.81
RQCHHQSSFPGSLPQETNLTLKVC	2.54
RQIHHQSSFPGSLPQETNLTLKVC	3.06
RQLHHQSSFPGSLPQETNLTLKVC	2.34
RQHHHQSSFMGSLPQETNLTLKVC	2.19
RQHHHQSSFQGSLPQETNLTLKVC	3.06
RQHHHQSSFPGSLPQETNLTEKVC	4.5
RQHHHQSSFPGSLPQETNLTCKVC	3.97
RQHHHQSSFPGSLPQETNLTNKVC	4.32
RQHHHQSSFPGSLPQETNLTHKVC	3.76
RQHHHQSSFPGSLPQETNLTGKVC	4.36
RQHHHQSSFPGSLPQETNLTKKVC	3.79
RHHHHQSSFPGSLPQETNLTLKVC	2.27
RNHHHQSSFPGSLPQETNLTLKVC	2.62
RQHHHQSSFPGSLPQETNLTLKTC	3.76
RQHHHQSSFPGSLPQETNLTLKCC	3.41

Variant	protein stability index
RQHHHQSSFPGSLPQETNLTLKEC	4.27
RQHHHQSSFPGSLPQETNLTLKWC	2.86
RQHHHQSSFPGSLPQETNLTLKSC	3.73
RQHHHQSSFPSSLPQETNLTLKVC	2.9
RQHHHQSSFPASLPQETNLTLKVC	2.21
RQHHHQSSFPRSLPQETNLTLKVC	2.44
RQHHHQSSFPTSLPQETNLTLKVC	2.66
RQHHHQSSFPGTLPQETNLTLKVC	2.99
RQHHHQSSFPGILPQETNLTLKVC	2.41
RQHHHQSSFPGLLPQETNLTLKVC	2.66
RQHHHQSSFPGDLPQETNLTLKVC	3.19
RQHHHQSSFPGALPQETNLTLKVC	3.19
RQHHHQSSFPGSLPQETFLTLKVC	2.55
RQHHHQSSFPGSLPQETELTLKVC	2.77
RQHHHQSSFPGSLPQETYLTLKVC	2.08
RQHHHQSSFPGSLPQETNATLKVC	4.07
RQHHHQSSFPGSLPQETNYTLKVC	2.95
RQHHHQSSFPGSLPQETNMTLKVC	3.16
RQHHHQSSFPGSLPQETNWTLKVC	4.19
RQHHHQSSFPGSLPQETNCTLKVC	3.32
RQHHHQSSFPGSLPQETNHTLKVC	4.14
RQHHHQVSFPGSLPQETNLTLKVC	2.89

Variant	protein stability index
RQHHHQDSFPGSLPQETNLTLKVC	3.23
RQHHHQRSFPGSLPQETNLTLKVC	3.34
RQHHHQSSFPGSLPQETNLTLMVC	2.28
RQHHHQSSFPGSLPQETNLTLNVC	2.92
RQHHHQSSFPGSLPQETNLTLTVC	2.43
RQHHHQSSFPGSLPQELNLTLKVC	1.57
RQHHHQSSFPGSLPQEVNLTLKVC	2.17
RQHHHQSSFPGSLPQERNLTLKVC	3.28
RQHHHQSSFPGSLPQEYNLTLKVC	2.09
RQHHHQSSFPGSLPQECNLTLKVC	2.46
RQHHHQSSFPGSLPYETNLTLKVC	2.28
RQHHHQSSFPGSLPVETNLTLKVC	2.6
RQHHHQSSFPGSLPPETNLTLKVC	3.05
MQHHHQSSFPGSLPQETNLTLKVC	2.87
NQHHHQSSFPGSLPQETNLTLKVC	2.7
HQHHHQSSFPGSLPQETNLTLKVC	3.2
FQHHHQSSFPGSLPQETNLTLKVC	1.63
RQHHHQSSFPGSPPQETNLTLKVC	3.42
RQHHHQSSFPGSNPQETNLTLKVC	3.71
RQHHHQSSFPGSLPQETNLILKVC	2.13
RQHHHQSKFPGSLPQETNLTLKVC	3.07
RQHHHQSHFPGSLPQETNLTLKVC	2.45

Variant	protein stability index
RQHHHQSQFPGSLPQETNLTLKVC	2.9
RQHHHQSLFPGSLPQETNLTLKVC	2.45
RQHHHQSPFPGSLPQETNLTLKVC	2.71
RQHQHQSSFPGSLPQETNLTLKVC	3.9
RQHCHQSSFPGSLPQETNLTLKVC	2.87
RQHDHQSSFPGSLPQETNLTLKVC	3.56
RQHNHQSSFPGSLPQETNLTLKVC	3.14
RQHSHQSSFPGSLPQETNLTLKVC	2.96
RQHTHQSSFPGSLPQETNLTLKVC	3.36
RQHHHQSSFPGSLPQETNLTLKVW	2.9
RQHHHQSSFPGSLPQETNLTLKVK	4.11
RQHHHQSSIPGSLPQETNLTLKVC	3.3
RQHHHQSSWPGSLPQETNLTLKVC	3.27
RQHHHFSSFPGSLPQETNLTLKVC	2.3
RQHHHCSSFPGSLPQETNLTLKVC	1.72
RQHHHNSSFPGSLPQETNLTLKVC	2.71
RQHHHKSSFPGSLPQETNLTLKVC	3.15
RQHHHRSSFPGSLPQETNLTLKVC	4.03
RQHHHPSSFPGSLPQETNLTLKVC	2.55
RQHHHLSSFPGSLPQETNLTLKVC	2.49
